In article PMC7486399:

Target: angiotensin-converting enzyme 2 (ACE2) protein, purified (UniProt Q9BYF1)
Assay: AFM single-molecule force spectroscopy (FD-curve-based AFM)

SARS-CoV-2 spike glycoprotein receptor-binding domain (from UniProt P0DTC2 319-541) (domain or fragment)
Kd: 120 nM
bond lifetime τ: 111 ms
interaction time: 0.25 ms
